T1: calcium and integrin binding protein 1 (CIB1), recombinant (human, UniProt Q99828 1-191)
T1 sequence (looked up): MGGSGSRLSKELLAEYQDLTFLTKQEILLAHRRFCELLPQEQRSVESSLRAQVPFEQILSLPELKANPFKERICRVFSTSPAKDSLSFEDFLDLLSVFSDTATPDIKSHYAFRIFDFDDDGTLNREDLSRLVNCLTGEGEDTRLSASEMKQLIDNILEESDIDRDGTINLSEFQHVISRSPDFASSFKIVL


Columns and labels:
[1] = target: full-length human αIIb cytoplasmic tail peptide (human); assay: ELISA
[2] = target: T1, calcium and integrin binding protein 1 …; assay: ELISA

Molecule | IC50 [1] | binding result [2]
talin head domain (THD), recombinant (domain or fragment) | 25 nM | 
LVLAMWKVGFFKRNRPPLEEDDEEGQ [full-length human αIIb cytoplasmic tail peptide] |  | binds
